Test results: article PMC6581901, “The SRP signal sequence of KdpD” (Scientific Reports, 2019)

Key:
[1] = biological target: T1, SRP reconstituted from wild-type Ffh (406C) and 4.5S RNA (E. coli, UniProt P0AGD7 1-453); assay: cross-linking; disulfide cross-linking with 1 mM copper phenanthroline; 2 µM reconstituted SRP (Ffh + 3 µM 4.5S RNA) with 20 µM peptide, 1 h on ice, 50 mM Tris pH 7.4, 150 mM NaCl, 10 mM MgCl2; TCA precipitation, SDS-PAGE with or without DTT; settings: both partners purified
T1 construct: Ffh (fifty-four-homolog), 48-kDa protein component of E. coli SRP, expressed from pMS-Ffh-C-Strep; Ribonucleoprotein: Ffh with a 1.5-fold molar excess of 4.5S RNA; the RNA is not written as a chain; also called wildtype SRP; source: E. coli BL21 (DE3), purified (Strep-Tactin, Superdex 75); reconstituted with in vitro transcribed 4.5S RNA
T1 sequence (looked up): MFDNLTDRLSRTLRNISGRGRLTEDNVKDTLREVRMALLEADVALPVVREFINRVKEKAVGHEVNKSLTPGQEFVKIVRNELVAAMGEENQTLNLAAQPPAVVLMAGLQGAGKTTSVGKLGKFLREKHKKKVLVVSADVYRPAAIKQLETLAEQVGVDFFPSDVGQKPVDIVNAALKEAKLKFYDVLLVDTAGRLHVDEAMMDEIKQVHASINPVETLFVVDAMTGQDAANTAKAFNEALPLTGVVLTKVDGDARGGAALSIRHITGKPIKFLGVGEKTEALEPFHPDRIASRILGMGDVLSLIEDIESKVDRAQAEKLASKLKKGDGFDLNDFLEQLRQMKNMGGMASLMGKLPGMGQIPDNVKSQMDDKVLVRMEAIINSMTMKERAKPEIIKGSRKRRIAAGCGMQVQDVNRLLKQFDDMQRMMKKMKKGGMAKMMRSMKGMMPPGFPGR

[2] = biological target: T2, SRP reconstituted from Ffh 406S/423C and 4.5S RNA (E. coli, UniProt P0AGD7 1-453, M423C | C406S); assay: as above; settings: both partners purified
T2 construct: Ffh of E. coli SRP with a cysteine at 423 (M domain pocket) and a serine at 406, from pMS-Ffh-M423C-C-Strep; Ribonucleoprotein with 4.5S RNA; also called SRP 423; Ffh M423C; source: E. coli BL21 (DE3), purified (Strep-Tactin, Superdex 75); reconstituted with in vitro transcribed 4.5S RNA
T2 sequence (looked up): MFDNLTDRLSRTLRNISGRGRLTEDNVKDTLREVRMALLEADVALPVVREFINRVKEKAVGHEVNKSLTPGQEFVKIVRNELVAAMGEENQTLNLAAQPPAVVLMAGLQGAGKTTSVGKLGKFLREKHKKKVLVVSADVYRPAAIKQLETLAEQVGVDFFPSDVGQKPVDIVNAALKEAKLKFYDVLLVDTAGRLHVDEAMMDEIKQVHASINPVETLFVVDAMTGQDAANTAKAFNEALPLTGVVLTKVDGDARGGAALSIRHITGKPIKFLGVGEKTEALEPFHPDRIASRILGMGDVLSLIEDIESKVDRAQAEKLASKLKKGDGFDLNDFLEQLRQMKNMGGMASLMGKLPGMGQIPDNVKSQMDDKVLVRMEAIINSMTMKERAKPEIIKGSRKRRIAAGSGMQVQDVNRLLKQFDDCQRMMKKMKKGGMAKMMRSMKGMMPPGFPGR

B1: KdpD peptide (residues 22-48), in vitro synthesized (peptide)
peptide: Ac-RGKLKVFFGACAGVGKTWAMLAEAQRL-NH2
notes: also called KdpD22-48; KdpD22–48 peptide; source: synthetic peptide (GENOSPHERE Biotechnologies, purity >95%)
[1]
  binding result: binds
[2]
  binding result: binds
